Measurements as given in article PMC10643120 (Nature structural & molecular biology, 2023).

B1: 201Φ2-1 gp2 (ChmB), purified (natural protein, Pseudomonas phage 201Φ2-1, UniProt B3FJX8 1-179, looked up)
chain: MTLIAKPAVPDTEVLNHIGRDLLLKDEDGSFKLQRHLKILTEEGLVHQVSFAQVDGLLNILDSTRETPPCSPLQYLITHYDLKDLVELGKDGWLVPEYQVVVMHSSKTVRFEGKLTRVGSIDKEFTFALGGFDFIQQLSLARCIASLGKEFEQVIGTFDCTYVFKTGPDGISVSTDIGV
B2: gp2 homolog of phage Psa21 (gp3), purified (natural protein, Pseudomonas phage Psa21, UniProt A0A481W4E6 1-229, looked up)
chain: MNPVYDIFNDIANNMVTVENKEEFLSNTVRLVGASGKEHVLSIAQAQLLLGVLDGSHQFLTDYNPLEFLLFSYQFQDKIKLKYVAVQYQIIYDADDDSIFVSGVTRHPMTVVGHPDYVAGASVPIETFQTTIPNVGLYGGLALVNCIATQSPDFAPVKGSFGGSFIFEFDGGKQSIRRYVPAEIDEPVIHKEELQEALDEAVKKFVPSAAPKVEFNGIKDTSTKTEQEI
B3: ΦPA3 gp2 (ChmB), purified (natural protein, Pseudomonas phage ΦPA3, UniProt F8SJN3 1-197, looked up)
chain: MTDVAYPYLETSTLFDNIVKGQILEPDAESPQLSHVLKITDAAGIGHEVTFFQLSILLAILQGNKHELTDNQPHQYLVNQWVLTDLHNIYDEGYVMTSHRVIVDHVEEVATFTGTLVHQKTIRSHPNWQEGFTAPVKEFEFNLENFGIFHQIVFSQCIANLTPELDWVARTFGHSYIFEMEGRNVRVASIQEEGTTE

Molecular target: the molecule itself
Assay: SEC-MALS; 100 μL of purified protein at 5 mg/mL on Superdex 200 Increase 10/300 GL in buffer GF (300 mM NaCl, 1 mM DTT)

Protein | stoichiometry N
B1 | 2
B2 | 2
B3 | 2
